The nature of the data set: soluble on expression in E. coli; label from the status in PepcDB or PDB records.
Take “MTTMVNVDTLPEYEKSQIKRALELGTVMTVFNARKSTPERRTVQMIMETRQVAWSKTADKIEGFLDIMEIKEIRPGKNSKDFERAKAVRHKAECCFTILYGTQFVLSTLSLATDSKEDAVKWLSGLKILHQEAMSASTPTMIESWLRKQIYSVDQTRRNSISLRELKTILPLVNFKVSGIKFLKDKLVEIGAQKDELSFEQFHLFYKKLMFDQQKSILDEFKKDSSVFILGNTDRPDASAVYLQDFQRFLLHEQQELWAQDLNKVRERMTKFIDDTMRETAEPFLFVDEFLTYLFSRENSIWDEKYDAVDMQDMNNPLSHYWISSSHNTYLTGDQLRSESSTEAYIRCLRAGCRCIELDCWDGPDGKPIIYHGWTRTTKIKFDDVVQAIRDHAFVTSSFPVILSIEEHCSVEQQRHMAKVFKEVLGDMLLTKPTEASADQLPSPSQLREKIIIKHKKLGPKGDVDVNVEDKKDEHKPQGELYMWDSIDQKWTRHYCAIADAKLSFGDDIEQAVEEEPVQDTPPTELHFGEKWFHKKVESRTSAEKLLQEYCAETGAKDGTFLVRESETFPNDYTLSFWRSGRVQHCRIRSTMENGVMKYYLTDNLTFNSIYALIQHYREAHLRCAEFELRLTDPVPNPNPHESKPWYYDSLSRGEAEDMLMRIPRDGAFLIRKREGTNSYAITFRARGKVKHCRINRDGRHFVLGTSAYFESLVELVSYYEKHALYRKMRLRYPVTPELLERYNMERDINSLYDVSRMYVDPSEINPSMPQRTVKALYDYKAKRSDELTFCRGALIHNVSKEPGGWWKGDYGTRIQQYFPSNYVEDISAGDAEEMEKQIIEDNPLGSLCKGILDLNTYNVVKAPQGKNQKAFVFILEPKKQGDPPVEFATDRVEELFEWFQSIREITWKMDTKENNMKYWERNQSIAIELSDLVVYCKPTSKTKDHLENPDFREIRSFVETKADSIVRQKPVDLLRYNQKGLTRVYPKGQRVDSSNYDPFRLWLCGSQMVALNFQTPDKYMQMNHALFSLNGRTGYVLQPESMRSEKYDPMPLESQRKILMTLTVKVLGARHLPKLGRSIACPFVEVEICGAEYDSNKFKTTVVNDNGLSPVWAPTQEKVTFEIYDPNLAFLRFVVYEEDMFSDPNFLAHATYPIKGIKSGFRSVPLKNGYSEDIELASLLVFCEMRPVLESEEELYSSCRQLRRRQEELNNQLFLYDTHQNLRGANRDALVKEFNVNENQLQLYQEKCNRRLREKRVSNSRFYS”: the “soluble on expression in E. coli” value is “soluble”.

As for “MSLKILILGGTRFLGRAFVEKALNRGYEVTLFNRGTNKEIFPEVEQLIGDRNGDVSSLENRKWDVVVDTCGFSPHHIRNVGEVLKDNIEHYIFISSLSVYKDWIPHHIKEDYILQPEPTAEQIKAVENGEVSPYEYYGALKVLCEKEAEKYWPGRVLHVRAGLLSGMFDYTDRLPYWIGRVAKGGEVLVPGRKDRPVQIVDIKDVANWGLNMAENNKAGIFNVTGPNYDLTMEELLNTCKKVTNSDAEFVWIEESFMNEHKVQPWTEMPLWIPETFSLEGETKPWKGGFSISINSAIKAGLTFRRLEDTVMDVYVWMKSIEEWELKAGISGEREKELLEKWYQEGHHHHHH”, the “soluble on expression in E. coli” value is “soluble”.

Take “SNAMKQIIDIENWERKENFNFFRHFQNPQLSITSEVECGGARQRAKAAGQSFFLHYLYAVLRAANEIPEFRYRIDPDGRVVLYDTIDMLSPIKIKENGKFFTTRFPYHNDFDTFYQEARLIIDAIPEDGDPYAAENEEVADGDYGLILLSATPDLYFTSITGTQEKRSGNNYPLLNAGKAIIREGRLVMPIAMTIHHGFIDGHHLSLFYKKVEDFLK”: the “soluble on expression in E. coli” value is “soluble”.

Regarding “MKLATKKNGTRDGLLMVVSKDLTRCVPATEVFHPRNLAPTMQVALDNWEAVAPQLEEIYTALNNGTVAGFEEFEAHYCESPLPRAYQWADGSAYVNHVELVRKARGAEMPESFWTDPLMYQGGSDAFIGPCDNIEFASDEWGIDFEGEVAVVTGDVPMGASIAEAQESIRLIMLVNDVSLRGLIPAELAKGFGFFQSKPSSAFSPVAVTPDELGDEWYENKVHLPLVSTYNHKPFGRPNAGVDMTFDFADLIVHATKTRPLSAGAIIGSGTVSNKQGTDHGTSIEEGGVGYSCIAEVRMIETIRDGKPTTNFMSFGDSIKLEMFDVEGNTIFGAIDQQVSQYLKH”, the “soluble on expression in E. coli” value is “not soluble”. “GPGSMEGLSPPETDECAKPHNRECNTTPSSGSPPSNIPPQQLLCSVRSGMHSNLTESAWESRESNSGYAHEKQSGVDGDACTRYYQRLHRFYEQYNPKNLSRISEYLAAYKGKEEQLMAILVGKYGPEPVDRGPQTNLSCCSGDDSVMHFSGKRYRIPTVVTPQQGNTDCETPYWGNSPLIGERDILGLLSSLETANVELQKCYIGPSAQHPTSSWNGMTYVTRAEIFTPNEETFLGHKWTFTLGSKKVLVHEGSAYHRATFFCTDECQYRGRHERWRLCVYTSSVDSLYLVRVIWDPVVYLEPLPLDRSALSQHSSSEAMPIAGSSVSYQTSCGKGNTEPEQPLISATMINIMTMLENMDKKISGRFDALEARFSFLESKLLGAVDDKQRTEDR”: the “soluble on expression in E. coli” value was “not soluble”. For “MVNFTVDEIRALMDRKRNIRNMSVIAHVDHGKSTLTDSLVSKAGIIAGSKAGETRFTDTRKDEQERCITIKSTAISLFFELEKKDLEFVKGENQFETVEVDGKKEKYNGFLINLIDSPGHVDFSSEVTAALRVTDGALVVVDCVSGVCVQTETVLRQAIAERIKPVLFMNKMDRALLELQLGAEELFQTFQRIVENINVIIATYGDDDGPMGPIMVDPSIGNVGFGSGLHGWAFTLKQFAEMYAGKFGVQVDKLMKNLWGDRFFDLKTKKWSSTQTDESKRGFCQFVLDPIFMVFDAVMNIKKDKTAALVEKLGIKLANDEKDLEGKPLMKVFMRKWLPAGDTMLQMIAFHLPSPVTAQKYRMEMLYEGPHDDEAAVAIKTCDPNGPLMMYISKMVPTSDKGRFYAFGRVFSGKVATGMKARIQGPNYVPGKKEDLYEKTIQRTILMMGRFIEPIEDIPSGNIAGLVGVDQYLVKGGTITTYKDAHNMRVMKFSVSPVVRVAVEAKNPADLPKLVEGLKRLAKSDPMVQCIFEESGEHIIAGAGELHLEICLKDLEEDHACIPLKKSDPVVSYRETVQSESNQICLSKSPNKHNRLHCTAQPMPDGLADDIEGGTVNARDEFKARAKILAEKYEYDVTEARKIWCFGPDGTGPNLLMDVTKGVQYLNEIKDSVVAGFQWATREGVLSDENMRGVRFNVHDVTLHADAIHRGGGQIIPTARRVFYASVLTAEPRLLEPVYLVEIQCPEAAVGGIYGVLNRRRGHVFEESQVTGTPMFVVKAYLPVNESFGFTADLRSNTGGQAFPQCVFDHWQVLPGDPLEAGTKPNQIVLDTRKRKGLKEGVPALDNYLDKM”, the “soluble on expression in E. coli” value is on record as “not soluble”. As for “MRVLHVCSELFPLLKTGGLADVIGALPAAQLAEGADVRIILPAFPDLRRGIPETVLVREIDTFAGRVALRYGHYRGIGIYLIDAPALYDRAGSPYHDASLYAYSDNYLRFALLGWMACELACGLDGYWRPEVVHAHDWHAGLTCAYLAARGRPARSVFTVHNLAYQGLFSADHLSELHLPAEFFQIYGLEFYGQISYLKAGLFFADHVTTVSPTYAKEITQPAFGYGMEGLLQALARQGRLTGILNGVDSDIWDPQSDTLLPTRYDAENLQAKAINKTHLQTAMGLQLAENKPIFAVVSRLTVQKGLDLVLEALPELLALGGQLVVLGSGDATLQEAFLAAAAEHSGQVGVQIGYHEAFSHRIIAGSDVILVPSRFEPCGLTQLYGLKYGTLPLVRHTGGLADTVVDCALENLADGSASGFVFNECEAQALVKAIRRAFVLWSRPKHWRHVQRHAMRLDFGWQLAAVDYLSLYRRL”, the “soluble on expression in E. coli” value is on record as “not soluble”.

Consider GGSGRPEIWIAQELRRIGDEFNAYYARRV, for which the “soluble on expression in E. coli” value was “soluble”. In the case of “MAVDDAQALALFLRDRTGRSSHTLRAYGAELRRLMRWCGTHGFGPFSDLTRQQLLAYRHTLEHGSSGTANTTPPLSEATRTRALAVVASLYGYWYATGYLHANPAAGLSAGSRLEHHHHHH”, the “soluble on expression in E. coli” value is “not soluble”. With “MSLHSTPAPVASPLPSALDEAARLAVLHGLCLLDSPPDPVFDTIAAMAARMLGTEIALVSLVDEHRQWFKARVGLEAPETPRKHAFCAHALRSDDVLVIPDALLDPRFCNNPLVLGAPHIRFYAGAPLKLRDGHTIGTLCVIGTSPRAGLDAEQRIQLEGLRDLAVLRVENLRSSTYRNGPTGLPNRARFSEDLDAVLLQRTADSAATAIAVDLCGSDYFRDMVKALGWDYADGYVALAYKRLISKLPAGTALYRLDTTTFAFMVTTADPLRLSALCSKISKGFVAPLEHQGIPHTAVASIGAVLLETSYGAADTLRSLTTSVDVAREHCLTWSLYEREGHHHHHH”, the “soluble on expression in E. coli” value is reported as “soluble”. To “MSLFQVPDSEGGRAGSRAMKPPGGESSNLFGSPEEATPSSRPNRMASNIFGPTEEPQNIPKRTNPPGGKGSGIFDESTPVQTRQHLNPPGGKTSDIFGSPVTATSRLAHPNKPKDHVFLCEGEEPKSDLKAARSIPAGAEPGEKGSARKAGPAKEQEPMPTVDSHEPRLGPRPRSHNKVLNPPGGKSSISFYEGHHHHHH” belongs “soluble”. To “MSLTHVIWDMGETLNTVPNTRYDHHPLDTYPEVVLRKNAKETLEKVKQLGFKQAILSNTATSDTEVIKRVLTNFGIIDYFDFIYASNSELQPGKMEKPDKTIFDFTLNALQIDKTEAVMVGNTFESDIIGANRAGIHAIWLQNPEVCLQDERLPLVAPPFVIPVWDLADVPEALLLLKKISEGHHHHHH” belongs “soluble”; to “LGGVFKKAGSKGLKGVRLVISDAHEGLKAAIKKILTGSAWQRCRVHFMRNVLSQVPKHYQGMVSSIIRTIFAQNDQESAREQLRHVVDELKNRFPKAMKILEEAEEEILAYMAFPREHWAQIHSTNPLERLNREIRRRTDVVCIFPNREAVIRLVGAMLMEQNDEWKVGRRYFSLESMSKITSINEFTLTPVALLHK”, “soluble”; to “MGCSHSKNKNSKSKSAILKKEHPLERSIHHNRVAHFDETQPTSQSTSVESEELNVKHYSKTLLNDTVEPTHQKTSAHVPEKSIKKQEVKQEVKKHETTTVVHTNVHVPKPTHKLPQASEIPIERMGSDPHTAIAPTYQQKQFATSTYYPMPTIGEKQKSPEKAKPARKVDNTDEKKRKKDQNEKPVINGPNVRHQLTPEDLEYIKRSVQQRNERRAFMMAHRNETDDTLYELEVRMPEKDYTNRMEVGQNYRVC”, “not soluble”. To “MSDGSVERGTKRAEDSLATHQLTVQYKRYYIDVNENTRGRYIKIAELGTNYKSRIILSIVAAKAIVSEISKMLALIDEPSTGEHAPKESSLIKSETLNVDGRKFYVDLKENVRGRFLRIAQMPMNPRQTRQQIAIPSDGIAEIHKVLTEYLAKFGEGHEQENTNTPKITAENKSFLFHSGKNDRGEFVRISEIKLNSGYRNAITVPMSALVDFRKELDNIIANQGK” belongs “not soluble”. Take “MKILVIGAGPAGLVFASQLKQARPLWAIDIVEKNDEQEVLGWGVVLPGRPGQHPANPLSYLDAPERLNPQFLEDFKLVHHNEPSLMSTGVLLCGVERRGLVHALRDKCRSQGIAIRFESPLLEHGELPLADYDLVVLANGVNHKTAHFTEALVPQVDYGRNKYIWYGTSQLFDQMNLVFRTHGKDIFIAHAYKYSDTMSTFIVECSEETYARARLGEMSEEASAEYVAKVFQAELGGHGLVSQPGLGWRNFMTLSHDRCHDGKLVLLGDALQSGHFSIGHGTTMAVVVAQLLVKALCTEDGVPAALKRFEERALPLVQLFRGHADNSRVWFETVEERMHLSSAEFVQSFDARRKSLPPMPEALAQNLRYALQRLEHHHHHH”: the “soluble on expression in E. coli” value is on record as “soluble”. With “MDKIKVGLQYWIPQHALTRLVGKLASARAGSLTTAIIRWFIKQYNVNMDEALHSDPTHFKTFNEFFVRELKAGVRPIAEGEKVITHPADACVSQFGAIEYGKLIQAKGHTYSAQELLGGDAKLAEEFRDGDFATLYLSPRDYHRVHMPCDGTLRQMIYVPGDLFSVNPLTAENVPNLFARNERVVCIFDTEFGPMAQVLVGATIVGSIELVWAGTVTPPRGNTVYRWDYPANGNQAVVLKKGEEMGRFKLGSTVINLFAKQAIRFDDSMALGAPTRMGEPYAHQA”, the “soluble on expression in E. coli” value is “soluble”.
